In publication PMC5336394 (Structure (London, England : 1993), 2017):

Experiments:
Assay in all cases: NMR titration
CypA^V6I = CypA^V6I (UniProt P62937 1-165, V6I)
CypA^V29L = CypA^V29L (UniProt P62937 1-165, V29L)
CypA^V29A = CypA^V29A (UniProt P62937 1-165, V29A)
CypA^V6S = CypA^V6S (UniProt P62937 1-165, V6S)
cyclophilin A = cyclophilin A (UniProt P62937 1-165)
CypA^V6TV29L = CypA^V6TV29L (UniProt P62937 1-165, V6T | V29L)
CypA^V29T = CypA^V29T (UniProt P62937 1-165, V29T)
CypA^V6L = CypA^V6L (UniProt P62937 1-165, V6L)
Sequence of CypA^V6L (P62937 whole entry V6L): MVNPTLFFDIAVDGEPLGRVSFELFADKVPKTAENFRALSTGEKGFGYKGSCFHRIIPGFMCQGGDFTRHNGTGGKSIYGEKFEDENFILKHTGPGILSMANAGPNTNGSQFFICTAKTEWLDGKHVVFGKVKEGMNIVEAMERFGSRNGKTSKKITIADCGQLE

CypA^V6T = CypA^V6T (UniProt P62937 1-165, V6T)
Sequence of CypA^V6T (P62937 whole entry V6T): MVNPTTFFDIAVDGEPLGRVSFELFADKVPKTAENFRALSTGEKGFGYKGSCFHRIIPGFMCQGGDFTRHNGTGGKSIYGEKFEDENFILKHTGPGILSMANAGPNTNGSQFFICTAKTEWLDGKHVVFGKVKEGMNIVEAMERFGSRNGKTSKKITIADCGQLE

CypA^V6A = CypA^V6A (UniProt P62937 1-165, V6A)
Sequence of CypA^V6A (P62937 whole entry V6A): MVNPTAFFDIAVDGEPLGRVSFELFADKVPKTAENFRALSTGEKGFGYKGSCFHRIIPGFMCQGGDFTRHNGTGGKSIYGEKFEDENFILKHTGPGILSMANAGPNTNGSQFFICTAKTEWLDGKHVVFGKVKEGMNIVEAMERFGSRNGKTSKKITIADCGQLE

Sequence of CypA^V29T (P62937 whole entry V29T): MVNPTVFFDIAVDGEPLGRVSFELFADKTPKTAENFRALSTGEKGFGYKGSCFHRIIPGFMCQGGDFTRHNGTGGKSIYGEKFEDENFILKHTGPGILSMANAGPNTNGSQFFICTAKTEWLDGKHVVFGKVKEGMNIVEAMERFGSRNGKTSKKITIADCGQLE
Sequence of CypA^V6TV29L (P62937 whole entry V6T/V29L): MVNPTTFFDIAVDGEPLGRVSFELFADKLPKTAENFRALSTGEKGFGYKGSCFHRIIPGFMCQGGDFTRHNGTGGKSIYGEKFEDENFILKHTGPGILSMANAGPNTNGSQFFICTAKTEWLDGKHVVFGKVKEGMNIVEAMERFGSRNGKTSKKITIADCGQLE
Sequence of CypA^V6I (P62937 whole entry V6I): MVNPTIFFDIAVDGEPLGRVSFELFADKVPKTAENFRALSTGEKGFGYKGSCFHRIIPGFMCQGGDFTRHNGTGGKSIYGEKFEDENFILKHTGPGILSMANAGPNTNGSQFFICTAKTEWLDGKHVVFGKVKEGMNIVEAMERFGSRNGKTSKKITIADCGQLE
Sequence of CypA^V29L (P62937 whole entry V29L): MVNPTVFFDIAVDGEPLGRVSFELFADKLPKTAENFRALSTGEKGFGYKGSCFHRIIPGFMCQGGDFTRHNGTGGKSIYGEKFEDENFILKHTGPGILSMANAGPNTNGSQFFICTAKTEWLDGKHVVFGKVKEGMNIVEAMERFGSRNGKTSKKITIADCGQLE
Sequence of CypA^V29A (P62937 whole entry V29A): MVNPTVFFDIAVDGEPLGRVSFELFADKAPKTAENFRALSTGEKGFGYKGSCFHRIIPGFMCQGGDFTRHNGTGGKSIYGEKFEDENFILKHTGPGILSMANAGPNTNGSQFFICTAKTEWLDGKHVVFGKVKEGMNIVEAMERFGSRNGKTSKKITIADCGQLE
Sequence of cyclophilin A (P62937 whole entry): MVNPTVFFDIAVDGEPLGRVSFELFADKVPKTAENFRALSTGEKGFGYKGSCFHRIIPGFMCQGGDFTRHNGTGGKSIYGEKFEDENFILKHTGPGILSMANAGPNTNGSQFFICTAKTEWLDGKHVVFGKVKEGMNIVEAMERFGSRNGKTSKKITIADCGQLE
Sequence of CypA^V6S (P62937 whole entry V6S): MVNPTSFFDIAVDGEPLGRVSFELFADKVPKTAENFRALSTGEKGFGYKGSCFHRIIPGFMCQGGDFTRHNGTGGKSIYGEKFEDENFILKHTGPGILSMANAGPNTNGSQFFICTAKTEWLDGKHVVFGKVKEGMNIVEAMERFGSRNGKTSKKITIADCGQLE

Kd (CypA^V6I): 86 µM
Kd (CypA^V29L): 38 µM
Kd (CypA^V29A): 57 µM
Kd (CypA^V6S): 65 µM
Kd (cyclophilin A): 76 µM
Kd (CypA^V6TV29L): 37 µM
Kd (CypA^V29T): 73 µM
Kd (CypA^V6L): 69 µM
Kd (CypA^V6T): 48 µM
Kd (CypA^V6A): 82 µM
Binder: GSFGPDLRAGD [FGP peptide]
